According to US20240400630A1:

How the values were obtained:
[1] = target: IL-15R on human PBMCs (NK cells, CD8+ T cells, CD4+ T cells) (human); assay: cell-based or functional assay
[2] = target: IL-2/IL-15 receptor on IL-2/IL-15-responsive HEK293 cells (human CD25 (IL-2Rα), CD122 (IL-2Rβ), CD132 (IL-2Rγ)) (human) (UniProt P01589); assay: cell-based or functional assay
Chain of IL-2/IL-15 receptor on IL-2/IL-15-responsive HEK293 cells (human CD25 (IL-2Rα), CD122 (IL-2Rβ), CD132 (IL-2Rγ)) (human) (P01589 22-272, chain 1 of 3): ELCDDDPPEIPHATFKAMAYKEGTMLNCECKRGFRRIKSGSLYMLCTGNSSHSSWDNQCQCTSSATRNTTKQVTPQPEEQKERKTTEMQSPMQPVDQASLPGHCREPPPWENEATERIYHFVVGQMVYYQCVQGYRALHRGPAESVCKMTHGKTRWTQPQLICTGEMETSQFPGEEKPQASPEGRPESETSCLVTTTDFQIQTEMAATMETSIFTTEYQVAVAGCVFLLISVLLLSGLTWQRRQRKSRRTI
Chain of IL-2/IL-15 receptor on IL-2/IL-15-responsive HEK293 cells (human CD25 (IL-2Rα), CD122 (IL-2Rβ), CD132 (IL-2Rγ)) (human) (P14784 27-551, chain 2 of 3, further chain): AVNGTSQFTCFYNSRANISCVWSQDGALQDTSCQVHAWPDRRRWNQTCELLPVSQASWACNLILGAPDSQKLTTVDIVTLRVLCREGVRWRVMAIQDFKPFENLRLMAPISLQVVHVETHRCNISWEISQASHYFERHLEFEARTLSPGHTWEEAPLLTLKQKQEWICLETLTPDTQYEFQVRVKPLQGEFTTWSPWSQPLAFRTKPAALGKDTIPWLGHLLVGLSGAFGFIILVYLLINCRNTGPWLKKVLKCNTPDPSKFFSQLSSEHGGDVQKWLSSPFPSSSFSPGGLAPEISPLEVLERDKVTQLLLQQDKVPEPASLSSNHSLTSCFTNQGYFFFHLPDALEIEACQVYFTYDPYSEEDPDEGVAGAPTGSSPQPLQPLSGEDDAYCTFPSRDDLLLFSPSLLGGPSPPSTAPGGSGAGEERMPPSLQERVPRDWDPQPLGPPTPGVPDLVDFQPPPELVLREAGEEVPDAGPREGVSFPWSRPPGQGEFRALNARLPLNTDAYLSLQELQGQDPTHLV
Chain of IL-2/IL-15 receptor on IL-2/IL-15-responsive HEK293 cells (human CD25 (IL-2Rα), CD122 (IL-2Rβ), CD132 (IL-2Rγ)) (human) (P31785 23-369, chain 3 of 3, further chain): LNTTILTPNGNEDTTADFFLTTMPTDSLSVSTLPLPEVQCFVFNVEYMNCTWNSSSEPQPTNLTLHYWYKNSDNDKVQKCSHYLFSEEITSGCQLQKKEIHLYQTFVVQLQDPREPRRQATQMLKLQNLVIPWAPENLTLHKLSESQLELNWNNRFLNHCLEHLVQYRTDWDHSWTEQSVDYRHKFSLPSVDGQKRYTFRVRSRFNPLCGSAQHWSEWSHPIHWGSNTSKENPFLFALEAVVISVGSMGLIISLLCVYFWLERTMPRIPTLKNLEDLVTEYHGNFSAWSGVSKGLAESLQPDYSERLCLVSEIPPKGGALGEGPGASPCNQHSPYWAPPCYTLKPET

## PeproTech IL-15 (Recombinant human IL-15, available from PeproTech, Catalog #200-15) (from UniProt P40933 49-162) (ligand)
[1]
  EC50: Human PBMC Proliferation Ki67, CD4: 121 pM
  EC50: Human PBMC Proliferation Ki67, CD8: 221 pM
  EC50: Human PBMC Proliferation Ki67, NK Cells: 4 pM
  EC50: Human PBMC STAT5 Phosphorylation, CD4: 6.97 pM
  EC50: Human PBMC STAT5 Phosphorylation, CD8: 6.4 pM
  EC50: Human PBMC STAT5 Phosphorylation, NK cells: 1.79 pM
[2]
  EC50: HEK-Blue Reporter Assay: 1.48 pM
  EC50: HEK-Blue Reporter Assay (average, n>3): 1.46 pM
